Among the data in article PMC3098285 are binding values, retold here.

In the data set the target is T1, His-PhoP (Salmonella enterica serovar Typhimurium (strain SL1344?)) (UniProt E1WFA1).
T1 sequence: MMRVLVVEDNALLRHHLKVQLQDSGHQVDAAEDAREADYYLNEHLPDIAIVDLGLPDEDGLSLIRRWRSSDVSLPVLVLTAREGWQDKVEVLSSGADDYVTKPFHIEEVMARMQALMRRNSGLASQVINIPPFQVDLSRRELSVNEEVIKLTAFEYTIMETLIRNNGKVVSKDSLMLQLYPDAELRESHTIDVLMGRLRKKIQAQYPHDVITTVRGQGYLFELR
Briefly: EMSA. Conditions: 20 mM HEPES pH 7.6, 1 mM EDTA, 10 mM (NH4)2SO4, 5 mM DTT, 0.2% Tween 20, 30 mM KCl, 0.1 ug poly-L-lysine, 1 ug poly(dI-dC), 50 mM acetyl phosphate, 37 C ….

As to “CGCTCACCTCTTCTGTATATAAGCTGTGAAATTGCGGTATGCTCAATCGGTAAAGTGAATTTACACATATATTCATTTTGCTCTGTTTCCTGGTAAGTGAAAGTAGCGAATATGATGTAATGTATAATT (double strand) [sseL promoter 128-bp fragment]”, the binding result is on record as “binds”.
